# In patent US20100279930A1 (published 2010):
# No end group written: not given here.
# Biological target: T1, human Y4 receptor (human, UniProt P50391 1-375)
# Assay: 125I-PP displacement
# T1 sequence (P50391 whole entry): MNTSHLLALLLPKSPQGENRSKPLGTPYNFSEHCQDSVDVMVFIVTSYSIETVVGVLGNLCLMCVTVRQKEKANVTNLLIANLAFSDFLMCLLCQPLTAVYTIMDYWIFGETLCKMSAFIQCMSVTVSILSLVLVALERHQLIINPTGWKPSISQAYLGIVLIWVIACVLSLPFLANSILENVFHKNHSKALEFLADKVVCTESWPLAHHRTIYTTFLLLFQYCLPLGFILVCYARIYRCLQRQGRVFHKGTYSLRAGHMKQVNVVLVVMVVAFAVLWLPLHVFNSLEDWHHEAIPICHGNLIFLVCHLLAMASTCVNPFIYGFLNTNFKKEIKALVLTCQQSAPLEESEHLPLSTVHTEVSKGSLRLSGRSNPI
row,Binder,IC50 [nM]
1,KPLEPVYPGDNATPEELNRYYASLRRYINMLTRPRY [compound of SEQ ID NO:72 (code 6674)],0.076
2,APLEPVYPGDDATPEELNHYYSALRRYINMLTRPRY [6841],0.16
3,APLEPVYPGDNATPEELVKYYIELRRYINMLTRPRY [6851],0.11
4,APLEPFYPGDNATPEQMAQYAAELRRYINMLTRPRY [6829],0.2

# Next, values leading:
row,IC50 [nM],Binder
1,0.15,HAPLEPVYPGDNATPEELNHYYASLRRYINMLTRPRY [6859]
2,0.21,APLEPFYPGDNATPEQMAQYAAALRKYINMLTRPRY [6809]

# Biological target: T1, human Y4 receptor
# Assay: 125I-PP displacement
# Remark: another data set of the same source
row,Binder,IC50 [nM]
1,PAPLEPVYPGDNATPEELVKYYASLRHYINMLTRPRY [7108],0.25
2,APLEPVYPGDDATPQQMAHYYSELRRYINMLTRPRY [7136],0.149
3,PAPLEPVYPGDDATPQEIVHYFIELRRYINTLTRPRY [7133],0.173
4,PAPLEPVYPGDDATPQQMAHYYSELRRYINMLTRPRY [7137],0.072
5,AAPLEPVYPGDDATPQQMAHYYSELRRYINMLTRPRY [7138],0.13
6,APLEPVYPGDNATPEQNLAHYAAELRRYINMLTRPRY [7164],0.223
7,AAPLEPVYPGDNATPEELVKYYSALRRYINLLTRPRY [7112],0.095
8,PAPLEPVYPGDNATPEELVKYYSALRHYINMLTRPRY [7104],0.225
9,PAPLEPVYPGDNATPEELVKYYASLRRYINMLTRPRY [7110],0.11
10,PAPLEPVYPGDNATPEELVKYYSALRRYINMLTRHRY [7114],0.166
11,APLEPVYPGDNATPEEIVHYFIELRRYINMLTRPRY [7125],0.1
12,APLEPVYPGDNATPEEINRYYSALRRYINMLTRPRY [7121],0.12
13,APLEPVYPGDNATPEELVHYYSALRHYINMLTRPRY [7105],0.15
14,APLEPVYPGDNATPEELVKYYSALRHYINMLTRPRY [7103],0.2
15,PAPLEPVYPGDNATPEEINHYYSALRRYINMLTRPRY [7123],0.09
16,HAPLEPFYPGDDATPQQMAHYAAELRRYINMLTRPRY [7146],0.149

row,Binder,IC50 [nM]
1,PAPLEPFYPGDDATPQQMAHYAAELRRYINMLTRPRY [7145],0.165
2,AAPLEPFYPGDDATPQQMAHYAAELRRYINTLTRPRY [7147],0.148
3,AAPLEPVYPGDDATPQQMAQYAAELRRYINMLTRPRY [6866],0.17
4,AAPLEPVYPGDNATPEQMAQYAADLRRYINKLTRPRY (ends and bridges not checked) [compound of SEQ ID NO:171 (code 7218)],0.15
5,CAPLEPVYPGDNATPEQMAQYAADLRRYINCLTRPRY [7117],0.351
6,PAPLEPVYPGDNATPEQMAQYAADLRRYINKLTRPRY [7220],0.1
7,PAPLEPVYPGDNATPEQMAQYAAALRRYINKLTRPRY [7217],0.066
8,PAPLEPFYPGDNATPEQMAHYAADLRRYINTLTRPRY [7143],0.188
9,GAPLEPVYPGDNATPEQMAHYAAELRRYINMLTRPRY [7162],0.219
10,GAPLEPVYPGDNATPEQMAHYAAELRRYINTLTRPRY [7159],0.165
11,PLEPVYPGDNATPEELVKYYSALRRYINMLTRPRY [7101],0.069
12,APLEPKYPGDNATPEQMAQYAAALRRYINMLTRPRY [7230],0.21
13,APLEPVYPGDNATPEQMAHYAAELRRYINMLTRPRY [7160],0.15
14,APLEPVYPGDNATPEQMAQYAADLRRYINCLTRPRY [7115],0.229
15,APLEPEYPGDDATPQQMAHYAAELRRYINMLTRPRY [7149],0.119

# Next, values leading:
row,IC50 [nM],Binder
1,0.18,APLEPVYPGDDATPQQIAHYYSELRRYINMLTRPRY [7135]
2,0.083,APLEPVYPGDNATPEELVKYYASLRRYINMLTRPRY [7109]
3,0.137,HAPLEPVYPGDDATPQQMAHYYSELRRYINMLTRPRY [7139]
4,0.114,GAPLEPVYPGDNATPEELVKYYSALRRYINMLTRPRY [7102]
5,0.118,APLEPVYPGDNATPEEINHYYSALRRYINMLTRPRY [7122]
6,0.084,APLEPVYPGDNATPEELVKYYSALRRYINMLTRHRY [7113]
7,0.077,APLEPVYPGDNATPEELVKYYSALRRYINLLTRPRY [7111]
8,0.16,AAPLEPFYPGDDATPQQIAHYAAELRRYINTLTRPRY [7148]
9,0.216,AAPLEPFYPGDDATPQQMAHYAAELRRYINMLTRPRY [7144]
10,0.146,AAPLEPVYPGDNATPEQMAHYAAELRRYINTLTRPRY [7158]
11,0.169,PAPLEPEYPGDDATPQQMAHYAAELRRYINMLTRPRY [7150]
12,0.22,DAPLEPVYPGDNATPEQMAQYAADLRRYINKLTRPRY [7219]
13,0.109,DAPLEPVYPGDNATPEQMAQYAAALRRYINKLTRPRY [7216]
14,0.057,"AAPLEPVYPGDNATPEQMAQYAAALRRYINKLTRPRY [compound of SEQ ID NO:168 (Ala 0, Ala 23 and Lys 30, code 7215)]"
15,0.188,PAPLEPVYPGDNATPEQMAHYAAELRRYINMLTRPRY [7161]
16,0.146,APLEPVYPGDNATPEELVKYAAELRRYINMLTRPRY [7163]
17,0.31,APLEPVYPGDNATPEEIVKYFIELRRYINMLTRPRY [7124]
18,0.089,APLEPKYPGDNATPEQMAQYAAALRRYINKLTRPRY [7231]
19,0.106,APLEPVYPGDNATPEQMAQYAAALRRYINKLTRPRY [compound of SEQ ID NO:167 (code 7214)]
20,0.183,APLEPVYPGDDATPEQMAHYAAELRRYINMLTRPRY [7165]

# Biological target: T1, human Y4 receptor
# Assay: 125I-PP displacement
# Remark: another data set of the same source
row,Binder,IC50 [nM]
1,AAPLEPHYPGDNATPEQMARYYSELRRYINKLTRPRY [4059955],0.044
